From PMC6581901, “The SRP signal sequence of KdpD” (Scientific Reports, 2019)
Positions count from the first letter of the chain named.

Columns and labels:
[1] = biological target: T1, SRP reconstituted from Ffh 406S/423C and 4.5S RNA (E. coli, UniProt P0AGD7 1-453, M423C | C406S); assay: cross-linking; disulfide cross-linking with 1 mM copper phenanthroline; 2 µM reconstituted SRP (Ffh + 3 µM 4.5S RNA) with 20 µM peptide, 1 h on ice, 50 mM Tris pH 7.4, 150 mM NaCl, 10 mM MgCl2; TCA precipitation, SDS-PAGE with or without DTT; conditions: both partners purified
T1 construct: Ffh of E. coli SRP with a cysteine at 423 (M domain pocket) and a serine at 406, from pMS-Ffh-M423C-C-Strep; Ribonucleoprotein with 4.5S RNA; also called SRP 423; Ffh M423C; source: E. coli BL21 (DE3), purified (Strep-Tactin, Superdex 75); reconstituted with in vitro transcribed 4.5S RNA
T1 sequence (looked up): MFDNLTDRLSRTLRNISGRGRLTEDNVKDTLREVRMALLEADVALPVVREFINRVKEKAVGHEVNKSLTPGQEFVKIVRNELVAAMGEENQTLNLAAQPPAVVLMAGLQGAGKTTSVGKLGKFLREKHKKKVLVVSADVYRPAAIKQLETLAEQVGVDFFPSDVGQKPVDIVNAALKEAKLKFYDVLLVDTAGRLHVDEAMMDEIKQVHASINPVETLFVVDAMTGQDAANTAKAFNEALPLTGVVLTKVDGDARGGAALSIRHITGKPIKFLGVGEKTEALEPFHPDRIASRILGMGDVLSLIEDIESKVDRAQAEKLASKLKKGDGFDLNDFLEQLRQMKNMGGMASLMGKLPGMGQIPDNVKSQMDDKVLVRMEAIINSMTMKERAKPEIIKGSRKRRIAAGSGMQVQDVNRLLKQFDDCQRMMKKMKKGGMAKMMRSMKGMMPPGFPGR

[2] = biological target: T2, SRP reconstituted from wild-type Ffh (406C) and 4.5S RNA (E. coli, UniProt P0AGD7 1-453); assay: as above; conditions: both partners purified
T2 construct: Ffh (fifty-four-homolog), 48-kDa protein component of E. coli SRP, expressed from pMS-Ffh-C-Strep; Ribonucleoprotein: Ffh with a 1.5-fold molar excess of 4.5S RNA; the RNA is not written as a chain; also called wildtype SRP; source: E. coli BL21 (DE3), purified (Strep-Tactin, Superdex 75); reconstituted with in vitro transcribed 4.5S RNA
T2 sequence (looked up): T1 sequence (looked up) with S406C, C423M

B1: KdpD peptide (residues 22-48), in vitro synthesized (peptide)
peptide: Ac-RGKLKVFFGACAGVGKTWAMLAEAQRL-NH2
notes: also called KdpD22-48; KdpD22–48 peptide; source: synthetic peptide (GENOSPHERE Biotechnologies, purity >95%)
B1: binds [1]; binds [2].
